{
  "source": "patent US20230391826A1",
  "about": "(SANFORD BURNHAM PREBYS MEDICAL DISCOVERY INSTITUTE, published 2023)",
  "binders": {"B1": {"name": "CGA-WLA-YRPK dimer (N-ter) (peptide)", "peptide": "CGAWLAYPDSVPYRPK", "modifications": "also: N-terminally disulfide-linked homodimer, disulfide at 1, other end not in the chain", "notes": "also called dimer (5); dimeric peptide (5)"}},
  "key": {"[1]": {"biological_target": "T1, EphA2 ligand binding domain (EphA2 LBD), residues 28-200 (UniProt P29317 28-200)", "T1 construct": "range 28-200; Expressed in E. coli; also called soluble EphA2 LBD; soluble monomeric EphA2 LBD", "T1 sequence (P29317 other isoform, or with tags, fused parts or gaps limits assumed, form in doubt)": "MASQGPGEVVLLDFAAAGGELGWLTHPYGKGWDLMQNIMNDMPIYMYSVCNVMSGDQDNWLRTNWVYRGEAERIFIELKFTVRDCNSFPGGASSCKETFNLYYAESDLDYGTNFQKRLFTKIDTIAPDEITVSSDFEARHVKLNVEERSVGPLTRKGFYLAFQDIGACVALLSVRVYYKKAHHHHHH", "experiment": "ITC, soluble EphA2 LBD and peptide", "experimental": "(§1) For ITC, all peptides are dissolved in DMSO and both the EphA2 LBD and the peptides are diluted to obtain a final buffer containing 9.5 mM HEPES, pH 7.9, 95 mM NaCl, and 5% DMSO. The experiments are carried out at 296 K (23° C.) using an ITC200 calorimeter (Microcal). Two-microliter aliquots of a peptide solution are injected into the cell containing 205 μL EphA2 LBD. 200-400 μM peptides are titrated into 20-40 μM EphA2 LBD. Experimental data are analyzed using the Origin software package (Microcal). The integrated values for the reaction heats are normalized to the amount of injected peptide after blank subtraction."}, "[2]": {"biological_target": "T2, EphA2 extracellular domain fused to the Fc portion of an antibody (EphA2-Fc)", "T2 construct": "extracellular domain; Immobilized on the ELISA wells; also called immobilized EphA2", "T2 sequence (P29317 whole entry, the tested form may be a part)": "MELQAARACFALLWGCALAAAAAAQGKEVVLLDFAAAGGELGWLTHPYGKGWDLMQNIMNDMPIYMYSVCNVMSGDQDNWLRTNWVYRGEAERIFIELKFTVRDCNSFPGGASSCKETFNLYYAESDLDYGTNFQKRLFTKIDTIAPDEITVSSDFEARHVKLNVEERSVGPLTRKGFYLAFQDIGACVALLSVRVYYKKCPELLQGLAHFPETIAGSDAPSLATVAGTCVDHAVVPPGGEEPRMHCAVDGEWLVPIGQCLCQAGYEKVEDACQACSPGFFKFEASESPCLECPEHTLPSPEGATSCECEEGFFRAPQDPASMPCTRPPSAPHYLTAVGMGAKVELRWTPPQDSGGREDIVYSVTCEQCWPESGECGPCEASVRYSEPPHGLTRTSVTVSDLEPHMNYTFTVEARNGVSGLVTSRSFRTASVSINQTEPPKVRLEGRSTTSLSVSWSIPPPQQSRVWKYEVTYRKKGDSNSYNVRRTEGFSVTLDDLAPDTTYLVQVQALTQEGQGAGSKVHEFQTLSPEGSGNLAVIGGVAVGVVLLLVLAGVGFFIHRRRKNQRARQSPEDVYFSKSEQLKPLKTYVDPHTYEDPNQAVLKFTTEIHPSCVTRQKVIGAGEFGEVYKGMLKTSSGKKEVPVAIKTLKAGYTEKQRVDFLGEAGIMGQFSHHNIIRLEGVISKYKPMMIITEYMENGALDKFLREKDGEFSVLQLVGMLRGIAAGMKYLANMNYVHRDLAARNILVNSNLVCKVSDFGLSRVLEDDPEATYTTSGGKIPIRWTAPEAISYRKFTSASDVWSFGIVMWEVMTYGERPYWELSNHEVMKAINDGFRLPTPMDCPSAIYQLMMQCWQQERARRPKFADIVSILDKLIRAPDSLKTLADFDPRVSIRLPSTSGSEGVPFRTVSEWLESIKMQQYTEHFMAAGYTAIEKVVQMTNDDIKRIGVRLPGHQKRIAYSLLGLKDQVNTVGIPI", "experiment": "ELISA, inhibition of ephrinA5-AP binding to immobilized EphA2-Fc; representative experiment, triplicates"}, "[3]": {"biological_target": "T3, EphA2 endogenously expressed on PC3 prostate cancer cells (UniProt P29317 24-976, limits assumed)", "T3 sequence (P29317 24-976 limits assumed)": "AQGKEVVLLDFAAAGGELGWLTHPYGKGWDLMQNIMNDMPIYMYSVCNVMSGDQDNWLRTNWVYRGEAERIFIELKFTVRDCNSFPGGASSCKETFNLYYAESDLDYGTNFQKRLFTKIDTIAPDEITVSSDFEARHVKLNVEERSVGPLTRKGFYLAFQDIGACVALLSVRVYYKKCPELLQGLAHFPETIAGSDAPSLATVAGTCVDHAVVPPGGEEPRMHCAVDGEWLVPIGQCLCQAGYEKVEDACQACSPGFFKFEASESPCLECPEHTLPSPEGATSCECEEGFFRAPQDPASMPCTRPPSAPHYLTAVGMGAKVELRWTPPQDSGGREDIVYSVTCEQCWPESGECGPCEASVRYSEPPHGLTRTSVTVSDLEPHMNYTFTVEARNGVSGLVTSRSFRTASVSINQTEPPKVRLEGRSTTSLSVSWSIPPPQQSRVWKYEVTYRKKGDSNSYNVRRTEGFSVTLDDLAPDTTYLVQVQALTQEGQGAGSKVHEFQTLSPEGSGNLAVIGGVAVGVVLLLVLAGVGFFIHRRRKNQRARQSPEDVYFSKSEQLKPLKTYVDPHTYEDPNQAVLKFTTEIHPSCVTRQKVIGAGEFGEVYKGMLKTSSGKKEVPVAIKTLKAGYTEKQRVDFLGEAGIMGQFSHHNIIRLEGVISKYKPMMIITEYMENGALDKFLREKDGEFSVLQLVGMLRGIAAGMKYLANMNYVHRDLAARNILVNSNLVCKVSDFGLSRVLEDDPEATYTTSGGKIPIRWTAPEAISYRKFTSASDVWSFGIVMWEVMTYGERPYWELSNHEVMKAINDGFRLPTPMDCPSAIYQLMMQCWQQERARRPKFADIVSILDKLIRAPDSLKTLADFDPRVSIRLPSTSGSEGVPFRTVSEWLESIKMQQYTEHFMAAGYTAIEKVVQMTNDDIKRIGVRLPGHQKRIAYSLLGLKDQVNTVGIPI", "experiment": "cell-based or functional assay"}, "[4]": {"biological_target": "T3, EphA2 endogenously expressed on PC3 …", "experiment": "cell-based or functional assay", "remark": "listed apart in the source"}, "[5]": {"biological_target": "T2, EphA2 extracellular domain fused to the …", "experiment": "ELISA, inhibition of ephrinA5-AP binding to immobilized EphA2-Fc"}, "[6]": {"biological_target": "T2, EphA2 extracellular domain fused to the …", "experiment": "ELISA, inhibition of ephrinA5-AP binding to immobilized EphA2-Fc", "remark": "listed apart in the source"}, "[7]": {"biological_target": "T1, EphA2 ligand binding domain (EphA2 …)", "experiment": "ITC, soluble EphA2 LBD and peptide", "experimental": "as §1", "remark": "listed apart in the source"}, "[8]": {"biological_target": "T1, EphA2 ligand binding domain (EphA2 …)", "experiment": "ITC, EphA2 LBD (200-250 µM) titrated into 10-12.5 µM peptide; single titration shown"}, "[9]": {"biological_target": "T1, EphA2 ligand binding domain (EphA2 …)", "experiment": "ITC, soluble EphA2 LBD and peptide", "remark": "listed apart in the source"}},
  "note": "Where two headings read alike, the source gives them in different places. Where no end group is shown, it is not given here.",
  "data": [
    {"binder": "B1", "values": [
      {"measurement": "-TΔS", "setting": "[1]", "value": 21.9, "unit": "kcal/mol"},
      {"measurement": "Kd", "setting": "[1]", "value": 21, "unit": "nM"},
      {"measurement": "N (binding stoichiometry)", "setting": "[1]", "value": 2.2},
      {"measurement": "ΔG", "setting": "[1]", "value": -10.4, "unit": "kcal/mol"},
      {"measurement": "ΔH", "setting": "[1]", "value": -32.3, "unit": "kcal/mol"},
      {"measurement": "IC50", "setting": "[2]", "value": 0.79, "unit": "nM"},
      {"measurement": "Blig (bias factor)", "setting": "[3]", "value": 0.81},
      {"measurement": "EC50 PY588", "setting": "[3]", "value": 0.53, "unit": "nM"},
      {"measurement": "Emax PY588", "setting": "[3]", "value": "0.78 normalized to ephrinA1-Fc"},
      {"measurement": "IC50 PAKT", "setting": "[3]", "value": 0.068, "unit": "nM"},
      {"measurement": "EC50 pAKT inhib", "setting": "[4]", "value": 90, "unit": "pM"},
      {"measurement": "Etop pAKT inhib", "setting": "[4]", "value": 1},
      {"measurement": "Etop pY588", "setting": "[4]", "value": "0.87 normalized to ephrinA1-Fc"},
      {"measurement": "βlig (bias factor)", "setting": "[4]", "value": 0.66},
      {"measurement": "IC50", "setting": "[5]", "value": 0.66, "unit": "nM"},
      {"measurement": "IC50", "setting": "[6]", "value": 0.65, "unit": "nM"},
      {"measurement": "Kd", "setting": "[7]", "value": 21, "unit": "nM"},
      {"measurement": "N (binding stoichiometry)", "setting": "[7]", "value": 2.2},
      {"measurement": "Kd", "setting": "[8]", "value": 18, "unit": "nM"},
      {"measurement": "Kd", "setting": "[9]", "value": 380, "unit": "nM"},
      {"measurement": "N (binding stoichiometry)", "setting": "[9]", "value": 2.2}
    ]}
  ]
}
